Test results reported in the DeepSol protein solubility set.

Test: soluble on expression in E. coli; label from the status in PepcDB or PDB records

Q: For “MGSDKIHHHHHHVESLLTAADLHIHTTASDGTASPEAVLSYVATETDLRVIAITDHDTLRGALYARERASHYGIDVIVGCEISTRSGHLLALFIEQPVPAGLSVTETVARIHDQGGMAFAAHPFGMLVPSIGRRHLLGPERTDVDWMQLDGIEVFNASLWNPMNNERAARCAQRWGLTHIGGSDAHNLTMIGAGRTLFAGTGAADLRRALQRRATLVHGRYWGWRGVAGVVRERVWRQFGRPVESVS”, which “soluble on expression in E. coli” value is on record?
A: not soluble

Q: Which “soluble on expression in E. coli” value does the source give for “MGSDKIHHHHHHVGCMKWDYGKMEPFRATGDGLFIMNEGNFQYGNATLSYYDPETKKVENEIFYRANAMKLGDVAQSMIVRDTIGWVVVNNSHVIFAISTNTFKEVGRITGLTSPRYIHFISDEKAYITQIWDYRIFIVNPKTYQITGYIECPDMTMETGSTEQMVQYGKYVYVNCWSYQNRILKIDTTTDKVVDQLTVGIQPTSLVMDKNFKMWTITDGGYKGSPYGYEEPSLYRIDAETFKIEKQFKFQLGDAPSEVQLNGAGDELYWINKDIWRMSVDEERVPVRPFLKYRDTKYYGLTVSPKNGDVYVADAIDYQQQGMIYRYTEDGELVDEFYVGIIPGAFCWK” here?
A: not soluble

Q: Which “soluble on expression in E. coli” value does the source give for “MGSDKIHHHHHHVKFRVDRDAFADAVTWTARALPARPAVPVLAGMRLEVADTASDTLRLSGFDYEVSAQASVDVHAEEAGSVLVPGRLLAEIVRTLPPHPVEFHVEGSRALLTCGNARFTLLTLPLEDYPTLPAMPRTIGSAPADVFATAVRQVLPSTSRDDTLPMLTGVHLTFRGDTILLAATDRYRIAVREMWWKPEEVDIDTSALVPARTLGDFSRSLTGGNVDIALSTSDSRGAGEGMIGFEHDGKRTTTRLIDSDFVSYESRFPTEFAAQADVPVAPLAEAVKRVALVADRSTPVRLSFTSSEVVLEAGSGDDAQALEALEVNFEGEPMRIAFNPQYFLDGLTNVETERAFLRFVAPTRPAVITGTPAKEGGKPDFRYLVMPLRLA” here?
A: not soluble

Q: With “MGSDKIHHHHHHVKIRLALPQDVDLLAMLEKKHLNDELASANMGLQGQAFSHSELSELVQRHWVVVAQVEQQIVGYVIAGRWGFFEHWPIYRTLLNRLGQLDWDGPKLTKTNSCQYGPIWVQQAYRGQGIFEALVSEIRRQVAPHFSYMLTFIAEDNERSFAAHSGKAHMQVVDFFTVSARDYYLMAAKTQA” as the sequence, how does the “soluble on expression in E. coli” value read?
A: not soluble

Q: With “MGSDKIHHHHHHVLSNPSQVVLRNIELFESKNVLLINHECDLLATALLEDAAKVTTLALDFNHFQRIKSHENARLQCHFGHQLPSTQTFDAVVLFYPKSKSLAPYLLNLAGRHLIPGGELVIVGEKKGGIRSITKQLPDYFDGGIKLDNARHCMLYSSSLLSEAPEIKLSDWVKDYVLSTPQGELTICNLVGVFSEKRLDEGTELLLEHLPTLKGRVLDFGCGAGVITAALLKANPDLELECVDINAMALASCELTLAANGMQAKVYASDGLTQTQGMFDAIISNPPFHDGLDSTTEIATRFVQESEAQLKSGGIFQIVANRHLPYSDTIAKFFKTVNVAAENNKYKIYANRKA” as the sequence, how does the “soluble on expression in E. coli” value read?
A: not soluble

Q: With “MGSDKIHHHHHHVRVTSSSGSCITIPTGVTNVTIRDSEIGPCGQPGDTSAKGIDIQSGASNITVQRNYIHDMATALYAAGARHPIIFDRNRVTNIRGPFPRGQMVQFNGVKSGTSGSKVTCNVSDVQGATYSNVEDHINMYDSGGLSNDRTEIAYNRLRGGSPTSNSGTAIMVGDGASGGNAWVHHNTIVNVRNVGIGVAGGTNIDVESNRIYMDRAATYTNVGLYVWSQGGGSCSGHSVTGNRAWVNSSNGAQNPWWNGGNCGAVELVSNVWGDTSLSSSMFNEVPSQCQ” as the sequence, how does the “soluble on expression in E. coli” value read?
A: not soluble

Q: With “MGSDKIHHHHHHVSDLLSQDEIDALLHGVDDVDDDDDLDAASQDARSYDFSSQDRIVRGRMPTLEIVNERFARHLRISMFNMMRRAAEVSINGVQMLKFGEYVHTLFVPTSLNMVRFSPLKGTALITMEARLVFILVDNFFGGDGRFHAKIEGREFTPTERRIVQLLLKIIFEDYKDAWAPVMDVEFDYLDSEVNPAMANIVSPTEVVVINSFHIEVDGGGGDFHITMPYSMIEPIRELLDAGVQSDKQDTDMRWSQALHDEIMDVKVGFDACVVEHELTLKDVMNFKAGDIIPVELPEYIMMKIEDLPTYRCKMGRSRDNLALKIYEKIPRPETVKTELQLVTRKGKARDISEL” as the sequence, how does the “soluble on expression in E. coli” value read?
A: not soluble

Q: With “MGSDKIHHHHHHVSEKMWGCCPNHWKSFGSSCYLISTKENFWSTSEQNCVQMGAHLVVINTEAEQNFITQQLNESLSYFLGLSDPQGNGKWQWIDDTPFSQNVRFWHPHEPNLPEERCVSIVYWNPSKWGWNDVFCDSKHNSICEMKKIYL” as the sequence, how does the “soluble on expression in E. coli” value read?
A: not soluble

Q: For “MGSDKIHHHHHHVSENTLKPQVNKLLAALPTNDYERLIPHLKLVSLPTRQVIYEPGEPIKQVYFPQNAVVSIVTGMKDGSTVEVGIVSNEGMVGIPVILGGSTTTTKAFVQVAGSGVQIDADVLRTEFNRGGAIQNLLLRYIRATYTELTQGCACNRLHTLEERLARWLLTVSDRLESEEFPLTQEFIAQMLGVRRSGVTVAASALSRAGMISYQRGQINILNREDLEETSCECYRVIQNEFARLLKNQPKRDRR”, which “soluble on expression in E. coli” value is on record?
A: not soluble

Q: For “MGSDKIHHHHHHVSKPPTIVSVPMPCGSTIEIVAPGSFHIPRVLADGGLKNYEVHSTAAALALMERSEGAFYDIGANIGVFSLCVASALRRRCHAYEPFPDAATVLDELQVRYQLPIAVHRKGVGQTAGQAQFYLSDRSDMSNSLNPNFRKHRGVLDVEVTTLEIELKRDKPAVLKIDTETTEDQVITGGLNQIAHHRPSIIVELLNEAIAGKVRKLLLPLGYRCYAIGGGLRLQELSPIETSLEGDGRNWLFSPNPLDQEFADTFNKWRGVLFSI”, which “soluble on expression in E. coli” value is on record?
A: not soluble

Q: For “MGSDKIHHHHHHYLFQTYGSNKGEIIECKNCYCFKDQWNNIKNNPSINKNAKVLSCWLYYDKASPKPALKIMLINKNKFHRFQYVDAICKNDEIVLEFNGTYKNLENEFSKGISTDEFMTSLDTVWKNAHNIFKTPSSKYSLFVTSKHSNSITKQSNAFYIGKNGALTKISEKDFPLNDVNYMNCSKLDEQDKSSENACIIFK”, which “soluble on expression in E. coli” value is on record?
A: not soluble

Q: With “MGSFPNFGAFILRAQEKDGRTCINGLPVASPAKQMLGRFPYLQSLQHDNLSVYLHFSETVIARDLVIVVMEHYTMNLEDILKTGNLKDESLNNNFYSEISSALDYLHTRNIVHGFLHLNSIYITDRKNQKLSVKLSGYGLPFLTNYGKDTASSIKFGAFLAPERILNDEDSLFAATYQSDVWELGFIILQIYLGISLEAEVTETEYLEILNKYYTDDQEKLSTVMEDLIQLLADKKRLPYHKKCEWLEAIIRKCLQMCCSKRCSITEVAAEIEININGVKNNNNKYEYKVKTVEEMRAAVRKEVADNNDGFEKLSVENSFYLWKTCGSTPEIILLKKGIIQNHAPISSYPTVRFDDFLRLDSGVDSQSTFEYGVFDLPSKKTLTRKETGQRVSARMFHKIGILEDKDLLNGNILYETASNMLTVDHLLNASAVFGISSIISRLTNIGVIPTQRADVWCTLLDINETKWRDYLNLDVLASHSSDRQLEVDIPRCHQYDSYMTTPAIQESLRKVLKGWQIVTESQHFVYWQGCDSLATPFLLANMSKPHVAFACFKEFTYRYCHKFYLKDNSEVIKEYLGIFYHLVAYTDPVLYKHLKINGFDAELFAIPWFLTCFAHELPLSKLVLLWDETMMHGNAFPLMIALAMLNRLRDKLLAVNFNEMIIIIHDQPDLSIDEIIKNSRGYEKLIPPSCTFRAHASPWKGTSLSLQQLSSIHCPRMSSEELIWRIERKMVYVLDTRQESEFQSERFSDSFNHPNNNHEADIDWLRFLPGIVCSELPKCFVYGKNDKEAAERLTEAYVMKGVPYICLLHDHFEAVRNRDSVVVKP” as the sequence, how does the “soluble on expression in E. coli” value read?
A: not soluble

Q: Which “soluble on expression in E. coli” value does the source give for “MGSGGVVHCRCAKCFCYPTKRRIRRRPRNLTILSLPEDVLFHILKWLSVEDILAVRAVHSQLKDLVDNHASVWACASFQELWPSPGNLKLFERAAEKGNFEAAVKLGIAYLYNEGLSVSDEARAEVNGLKASRFFSLAERLNVGAAPFIWLFIRPPWSVSGSCCKAVVHESLRAECQLQRTHKASILHCLGRVLSLFEDEEKQQQAHDLFEEAAHQGCLTSSYLLWESDRRTDVSDPGRCLHSFRKLRDYAAKGCWEAQLSLAKACANANQLGLEVRASSEIVCQLFQASQAVSKQQVFSVQKGLNDTMRYILIDWLVEVATMKDFTSLCLHLTVECVDRYLRRRLVPRYRLQLLGIACMVICTRFISKEILTIREAVWLTDNTYKYEDLVRMMGEIVSALEGKIRVPTVVDYKEVLLTLVPVELRTQHLCSFLCELSLLHTSLSAYAPARLAAAALLLARLTHGQTQPWTTQLWDLTGFSYEDLIPCVLSLHKKCFHDDAPKDYRQVSLTAVKQRFEDKRYGEISQEEVLSYSQLCAALGVTQDSPDPPTFLSTGEIHAFLSSPSGRRTKRKRENSLQEDRGSFVTTPTAELSSQEETLLGSFLDWSLDCCSGYEGDQESEGEKEGDVTAPSGILDVTVVYLNPEQHCCQESSDEEACPEDKGPQDPQALALDTQIPATPGPKPLVRTSREPGKDVTTSGYSSVSTASPTSSVDGGLGALPQPTSVLSLDSDSHTQPCHHQARKSCLQCRPPSPPESSVPQQQVKRINLCIHSEEEDMNLGLVRL” here?
A: soluble

Q: Which “soluble on expression in E. coli” value does the source give for “MGSHHHHHHRTPSDKPVAHVVANPQAEGQLQWLNRRANALLANGVELRDNQLVVPSEGLYLIYSQVLFKGQGCPSTHVLLTHTISRIAVSYQTKVNLLSAIKSPCQRETPEGAEAKPWYEPIYLGGVFQLEKGDRLSAEINRPDYLLFAESGQVYFGIIAL” here?
A: soluble

Q: Which “soluble on expression in E. coli” value does the source give for “MGSKAKKRVLLPTRPAPPTVEQILEDVRGAPAEDPVFTILAPEDPPVPFRMMEDAEAPGEQLYQQSRAYVAANQRLQQAGNVLRQRCELLQRAGEDLEREVAQMKQAALPAAEAASSG” here?
A: soluble

Q: With “MGSLGFLAGGVMPLEQLKQELSEVKGVFGVNLFRPQTDAPKPSDIDELAGLLSSAFRQFGLDEPTVPTPDLSNGWEAKFEAVLAAKPAVFSCTFGIFSAEEFARIKATGIEAWVTVTNPEDALAAQKAGANALVVQGPEAGGHRSTWSIEVEPDERDLKTLLAAVKQAGVYLPLIAAGGLSTSADVAAILEAGASAASCGSAFLLSDEAGTSSLNREILDAAPALGLESVSSRAFSGRYARGVETRFTRSNEGLPPLYPYLNPMITSLRKVAGSAGNWDYAYCLVGVGLESIAKGSAKQILESLTPSALEHHHHHH” as the sequence, how does the “soluble on expression in E. coli” value read?
A: not soluble

Q: For “MGSLYTSELSRAVSESVAAALQRSFQGELRSASALGSGWSTSAELLNRNDSTERYFVKLSEPQAVSMFSAEFEGIQAMAESETVRVPAPICYGNTAERSFIVLEYLELGGIGNEAVYRDFGEKLAAMHRCSSGGRGYGWHRGNTIGSTPQLNTWMHSWADFFVENRLRYQLKLARSRQGGRLRNEDALLQRVHSVLQEHEIQHQVTPSLVHGDLWTGNVATLRNQNEVVIFDPATYYGDREVDLAMTELFGRLPRAFYQAYDASWPLPKGYREKRRVIYNLYHILNHGALFGGGYYDQAQSMIETILR”, which “soluble on expression in E. coli” value is on record?
A: soluble

Q: For “MGSPLPFRLTCVWAGEPSMKKAIIFDCEFLCLEGSQRRFWCAAHDPDPVIAQIGAVKLGLEGGFPLLETYKVLISPVDRHGRRYAIDPFFTRLTGITEENIEAEGVPLQDALSSFDSFSEGAQCWSWGKDELNMMAISTYVAGIQPPMPACRFDNAVRLLLAAGMPVEDLAKTPSNSLADYYGVAHPPLQGHDALGDALSVSYALQHLLRSGKLKPEEFTLAAAAALEHHHHHH”, which “soluble on expression in E. coli” value is on record?
A: not soluble
